Consider 13 molecules from patent US20250282887A1 (Amgen, published 2025).

Assay [1] addresses T1, Human MAGEB2 (Melanoma-associated antigen B2) (human, UniProt O15479 1-319).
T1 construct: Intracellular antigen detected by IHC in FFPE material: CHO cells transfected with human MAGEB2 (mCherry vector with Myc/DDK tags, or ORF without tags)
T1 sequence: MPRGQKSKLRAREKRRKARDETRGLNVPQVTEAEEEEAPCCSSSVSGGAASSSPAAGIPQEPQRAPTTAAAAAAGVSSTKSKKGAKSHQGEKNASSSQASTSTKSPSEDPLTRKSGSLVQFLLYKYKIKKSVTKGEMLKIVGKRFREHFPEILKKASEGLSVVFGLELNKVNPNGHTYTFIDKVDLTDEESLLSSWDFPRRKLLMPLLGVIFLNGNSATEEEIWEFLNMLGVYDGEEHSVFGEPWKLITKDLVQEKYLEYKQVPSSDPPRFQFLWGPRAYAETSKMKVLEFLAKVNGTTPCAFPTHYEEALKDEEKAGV
In words: IHC, antibody supernatant on FFPE CHO cells transfected with human MAGEB2. The text has this: Negative control cells included parental Chinese hamster ovary (CHO) cells, CHO cells stably transfected with mCherry Vector Control (minus Myc/DDK tags), CHO cells stably transfected with mCherry-human DCAF4L2 (plus Myc/DDK tags). The cross-reactivity control cells included CHO cells transfected with mCherry Vector Control (plus Myc/DDK tags) with one of the human MAGE-B or MAGE-A family members (MAGEA1, MAGEA2, MAGEA3, MAGEA4, MAGEA5, MAGEA6, MAGEA8, MAGEA9, MAGEA11, MAGEA12, MAGEB1, MAGEB3, MAGEB4, MAGEB5, MAGEB6, MAGEB10, MAGEB16, MAGEB17, MAGEB18). Positive control cell lines included CHO cells transfected with mCherry Vector (plus Myc/DDK tags) with human MAGE-B2 or CHO cells transfected with mCherry Vector (open reading frame (ORF); minus Myc/DDK tags) with human MAGEB2, and thirteen human cancer cell lines with known endogenous RNA expression level of MAGEB2 (U266B1, T98G, KMM-1, U20S, CFPAC-1, SCaBER, UACC-257, CFPAC-1, VMRC-LCD, NCI-H1703, UM-UC-3, NCI-H1395, NCIH82).
FFPE samples were sectioned at 4 μm and mounted on positive charged glass slides. After mounting, paraffin sections were air-dried at room temperature. FFPE TMA samples were received as freshly sectioned and mounted on glass slides. The fully automated IHC assay was performed on a Discovery Ultra Stainer (Ventana Medical Systems, Tucson, AZ) using Ventana Anti-Rabbit HQ (cat #760-4815), Ventana Anti-HQ HRP (cat #760-4820), and Ventana Antibody Diluent with Casein (cat #760-219) (Ventana Medical Systems, Tucson, AZ). The slides were baked on the Discovery Ultra Stainer at 60° C. for 8 minutes, de-paraffinized with Ventana Discovery wash (cat #950-510) for 3 cycles (8 minutes each) at 69° C., and underwent cell conditioning (target retrieval) at 95° C. for 16 minutes (for cell arrays) or 32 minutes (tissues or TMAs) in CC1 buffer (cat #950-500). Following this, slides were incubated with Background Sniper (cat #BS966M, Biocare Medical, Pacheco, CA) in a Ventana Option Prep kit (cat #771-751) for 28 minutes, incubated with CM inhibitor (a part of the Ventana DAB kit cat #760-159) for 12 minutes, and incubated for 1 h at RT with MAGE-B2 antibody diluted with Ventana diluent with Casein in a Ventana Prep kit (cat #770-001) (working concentration at 0.1 μg/ml for cell pellet, or 1-5 ug/ml for tissues) or with a matched concentration of isotype control Rabbit IgG1 antibody.

For assay [2], the target named is T2, huMAGEB2(1-319), biotinylated full length MAGEB2 protein (human, UniProt O15479 1-319, biotinylated with recombinant BirA (site not stated)).
T2 construct: Expressed in E. coli from pET23; N-terminal 6xHis tag removed with caspase 3; also called Biotinylated MAGEB2 full length protein
T2 sequence: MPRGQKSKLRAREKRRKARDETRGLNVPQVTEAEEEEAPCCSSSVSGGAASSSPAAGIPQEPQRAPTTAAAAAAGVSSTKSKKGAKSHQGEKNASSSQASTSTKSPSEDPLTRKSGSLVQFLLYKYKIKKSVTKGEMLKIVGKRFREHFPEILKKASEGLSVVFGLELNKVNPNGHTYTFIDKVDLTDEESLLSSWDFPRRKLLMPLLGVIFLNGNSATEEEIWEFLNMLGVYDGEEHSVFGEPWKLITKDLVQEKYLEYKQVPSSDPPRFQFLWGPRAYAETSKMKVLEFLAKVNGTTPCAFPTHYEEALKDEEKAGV
Put plainly: limited antigen FACS; biotinylated full length MAGEB2 on LumAvidin beads; B-cell supernatant. How it is done:
Biotinylated MAGEB2 full length protein was titrated 1:2 across 6 different limited antigen concentrations and then coated onto six different LumAvidin beads in FACS buffer [1×PBS+2% fetal bovine serum (Hyclone Cat No. SH30396.03)] for 30 minutes at room temperature in the dark. The beads were then washed twice in FACS buffer by centrifugation for 2 min at 3500 RPM. The coated beads were resuspended and pooled together (6-plex) and added to the rabbit B-cell supernatants at a 1:2 final dilution onto Corning 3897 96 well V-bottom polystyrene plates and incubated overnight at room temperature in the dark. […] A final wash was done before plates were read on the iQue FACS machine with Intellicyte autosampler to obtain flow cytometry measurements according to the manufacturer's recommendations; data analysis was done on Intellicyt ForeCyt® Enterprise Client Edition 6.2 (R3).

B1: 1J16 (antibody, IgG1, V domains shown)
VH: QSLEESGGGLVQPEGSLTVTCTAFGVTLTNYYICWVRQAPGKGLEWIGCIDNINGRTYYASWAKGRFTISKTSSTTGTLQMTSLTAADTATYFCARSLATPLWGPGTLVTVSS
VL: DIVMTQTPASVEAAVGGTVTIKCQASQSISSYLAWYHQKPGQPPKLLIYAASTLASGVPSRFEGSGSGTQFTLTISDLECADAATYYCQSYDDSRSSSFFYAFGGGTEVVVK
notes: Rabbit monoclonal IgG1
Regarding B1, the binding result in assay [1] and in assay [2] was “binds” throughout.

B2: 1H24 (antibody, IgG1, V domains shown)
VH: QSLEESGGGLVQPEGSLTLTCTASGFTLNNYYICWVRQAPGKGLEWIACIDNSNGRTYYASWAKGRFTISKTSSTTVTLQMTSLTAADTATYFCARSLSTPLWGPGTLVTVSS
VL: DIVMTQTPFSVEAAVGGTVTIKCQASQSISSYLSWYRQKPGQPPKLLIYRASTLASGVPSRFKGSGSGTQFTLTISDLECADAATYYCQSYDDSSSNNFFYGFGGGTEVVVR
notes: Rabbit monoclonal IgG1
Regarding B2, the binding result in assay [1] and in assay [2] was “binds” each time.

B3: 1D2 (antibody, IgG1, V domains shown)
VH: QSLEESGGGLVQPEGSLTLTCTASGFTLNNYYICWVRQAPGKGLEWIACIDNVNGRTYYASWAKGRFTISRTSSTTVTLQMTSLTAADTATYFCARSLSTPLWGPGTLVTVSS
VL: DIVMTQTPFSVEAAVGGTVTIKCQASQSISSYLSWYQQKPGQPPKLLIYRASPLASGVPSRFKGSGSGTQFTLTISDLECADAATYYCQSYDDSSSNNFFYGFGGGTEVVVR
notes: Rabbit monoclonal IgG1
For the molecule B3, the binding result in assay [1] and in assay [2] was “binds” each time.

B4: 4A15 (antibody, IgG1, V domains shown)
VH: QSLEESGGGLVQPEGSLTLTCTASGVTLTNYYICWVRQAPGKGLEWIGCIDNVNGRTYYASWAKGRFTISKASSTTGTLQMTSLTAADTATYFCARSLATPLWGPGTLVTVSS
VL: DIVMTQTPASVEAAVGGTVTIKCQASQNINSYLAWYQQKPGQPPKLLIYRASTLASGVPSRFKGSGSGTEFTLTISDLECADAATYYCQSYDDSRSISFFYAFGGGTEVVVK
notes: Rabbit monoclonal IgG1
Turning to B4, the binding result in assay [1] and in assay [2] was “binds” in each case.

B5: 1C18 (antibody, IgG1, V domains shown)
VH: QSLEESGGGLVQPEGSLTLTCTASGFTLTNYYICWVRQAPGKGLEWIACIDNANGRTYYATWAKGRFTISKTSSTTVTLQMPSLTAADTATYFCARSLSTNLWGPGTLVTVSS
VL: DIVMTQTPASVEAAVGGTVTIKCQASQSISSWLSWYQQKPGQPPKLLLYRATTLASGVPSRFKGSGSGTQFTLTISDLECADAATYYCQSYDDSSSSNFFYAFGGGTEVVVR
notes: Rabbit monoclonal IgG1
Regarding B5, the binding result in assay [1] and in assay [2] was “binds” each time.

B6: 4G8 (antibody, IgG1, V domains shown)
VH: QEQLVESGGGLVQPEGSLTLTCAASGFSFSSSYFMCWVRQAPGKGLEWIACIAVGSSGSTYYASWAKGRFTISKTSSTTVTLQMTSLTAADTATYFCARVGYDDYGDSDAFDPWGPGTLVTVSS
VL: AAVLTQTPSPVSAAVGGTVTINCQSSKSVYNKNWLSWFQQKPGQPPKLLIYGASTLASGVPSRFKGSGSGTQFTLTISDVQCDDVATYYCAGGYSSSSDTFAFGGGTEVVVK
notes: Rabbit monoclonal IgG1
Take B6: the binding result in assay [1] and in assay [2] was “binds” in each case.

B7: 4A7 (antibody, IgG1, V domains shown)
VH: QEQLVESGGGLVQPEGSLTLTCAASGFSFSSSYFMCWVRQAPGKGLEWIACIGVGGSGSTYYANWAKGRFTISKTSSTTVTLQMTSLTAADTATYFCARVAYDDDGDSDAFDPWGPGTLVTVSS
VL: AAVLTQTPSPVSAAVGGTVSISCQSSKSVYNKNWLSWFQQKPGQPPKLLIYGASTLASGVPSRFKGSGSGTQFTLTISGVQCDDAATYYCAGGYSSSSDTFAFGGGTEVVVK
notes: Rabbit monoclonal IgG1
Take B7: the binding result in assay [1] and in assay [2] was “binds” throughout.

B8: 5I9 (antibody, IgG1, V domains shown)
VH: QSLEESGGRLVTPGGPLTLTCTVSGFSLSSYDMSWVRQAPGKGLEWIGYIATDGRPYYASWAKGRFTISKPSSTTVDLKITSPTTEDTATYFCVRGGYAGGLWGPGTLVTVSS
VL: AAVLTQTPSPVSAAVGGTVSISCQSSKSVYNNNWLAWYQQKPGQRPKLLIYDASTLDSGVSSRFKGSGSGTQFTLTISDVQCDDGATYYCVGGYSSRSDNGFGGGTEVVVK
notes: Rabbit monoclonal IgG1
Turning to B8, the binding result in assay [1] and in assay [2] was “binds” in each case.

B9: 7M5 (antibody, IgG1, V domains shown)
VH: QSLEESGGRLVTPGGSLTLTCTVSGIDLSSHAMIWVRQAPGEGLEWIGTIGSRDTIYYASWAKGRFTISKTSSTTMDLKMTSLTIEDTATYFCVRNALWGPGTLVTVSS
VL: DVVMTQTPASVSEPVGGTVTIKCQASQSIRNELFWWQQKPGQPPKLLIYAASKLASGVPSRFSGSGSGTEFTLTISDLECADAATYYCQCSYVSSSGTYGNVFGGGTEVVVK
notes: Rabbit monoclonal IgG1
With B9, the binding result in assay [1] and in assay [2] was “binds” in each case.

B10: 7H4 (antibody, IgG1, V domains shown)
VH: QSLEESGGGLVKPGASLTLTCKASGSDFRSYYYICWVRQAPGKGLEWVACIGGGNTDATAYARWAKGRFTISKTSATTVALQMTSLTAADTATYFCVRGGPDNNVQFNLWGPGTLVTVSS
VL: QAVVTQTPSSVSAAVGGTVTISCQSSQSVYSNNLLSWYQQKPGQPPKLLIYKASTLASGVPSRLKGSGSGTQFTLTISEVQCDDAATYYCQGYYSGVIYMFGGGTEVVVK
notes: Rabbit monoclonal IgG1
As to B10, the binding result in assay [1] and in assay [2] was “binds” each time.

B11: 7B20 (antibody, IgG1, V domains shown)
VH: QSLEESGGGLVKPGASLTLTCKASGSDLSSAYYICWIRQAPGKGLEWVACIGGVNRVATAYATWAKGRFTISKTSSTTVTLQMTSLTAADTATYFCVRGGPDNNVQFNLWGPGTLVTVSS
VL: AQVLTQTPASVSAAVGGTVTISCQSSQSVYSSDLLSWYQQKPGQPPKLLIYKASTLASGVPSRFKGSGSGTQFTLTISELQCDDAATYYCQGYYSGVVYIFGGGTEVVVK
notes: Rabbit monoclonal IgG1
With B11, the binding result in assay [1] and in assay [2] was “binds” throughout.

B12: 1H17 (antibody, V domains shown)
VH: QEQLVESGGGLVKPGASLTLTCKASGFSFSSGQLMCWVRQAPGKGLEWIACIGSGSNAISTFYASWAQGRFTISKSSSTTVTLQLTSLTAADTATYFCARVGSDDYGDSDVFDPWGPGTLVTVSS
VL: AAVLTQTPSPVSAAVGGTVSASCQSSKSVYNKNWLSWFQQKPGQPPKLLIYGASTLASGVPSRFKGSGSGTQFTLTISDVQCDDAATYYCAGGYSSSSDTFAFGGGTEVVVKG
Turning to B12, the binding result in assay [1] and in assay [2] was “binds” each time.

B13: 7F15 (antibody, IgG1, V domains shown)
VH: QEQLKESGGGLVAPGGTLTLTCAVSGFSLSSYNMGWVRQAPGEGLEYIGIIGASDSALYASWAKGRFTISKTSTTVDLKITSPTTEDTATYFCARGGLGLSTGFALWGPGTLVTVSS
VL: AAVLTQTPSPVSAAVGGTVSISCQSSQSVWHNDYLSWYQQKPGQPPKLLIYGASTLASGVPSRFKGSGSGTQFSLTISGVQCDDAATYYCAGGYGRSSENGFGGGTEVVVK
notes: Rabbit monoclonal IgG1
For B13, the binding result in assay [1] and in assay [2] was “binds” each time.
